The source of these data is patent US20200040059A1.

One assay deals with CD112R (human) (UniProt Q6DKI7). Briefly: flow cytometry, cells expressing target, 25 nM. Background: In flow cytometry, cells or beads pass a laser one at a time.
The target of assay [1] is T1, CD226 (human) (UniProt Q15762).
T1 sequence: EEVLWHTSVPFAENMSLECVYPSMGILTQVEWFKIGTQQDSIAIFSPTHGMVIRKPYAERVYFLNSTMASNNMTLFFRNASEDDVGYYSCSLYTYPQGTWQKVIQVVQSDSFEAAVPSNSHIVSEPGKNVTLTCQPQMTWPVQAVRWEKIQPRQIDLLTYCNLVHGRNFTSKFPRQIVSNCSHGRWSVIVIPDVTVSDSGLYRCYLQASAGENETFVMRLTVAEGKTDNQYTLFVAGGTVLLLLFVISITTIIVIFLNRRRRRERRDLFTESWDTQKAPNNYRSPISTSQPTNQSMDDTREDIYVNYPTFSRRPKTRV
The assay can be described thus: flow cytometry, cells expressing target, 25 nM.

The target in a further assay is T2, TIGIT (human) (UniProt Q495A1).
T2 sequence: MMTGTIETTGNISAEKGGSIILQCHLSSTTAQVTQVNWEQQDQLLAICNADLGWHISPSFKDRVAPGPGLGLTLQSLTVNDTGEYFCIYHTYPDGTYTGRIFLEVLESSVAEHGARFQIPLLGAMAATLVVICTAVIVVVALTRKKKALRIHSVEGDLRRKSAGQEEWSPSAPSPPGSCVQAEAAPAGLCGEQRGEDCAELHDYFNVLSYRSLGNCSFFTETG
Briefly: flow cytometry, cells expressing target, 25 nM.

The target in assay [2] is T3, CD96 (UniProt P40200).
T3 sequence (looked up): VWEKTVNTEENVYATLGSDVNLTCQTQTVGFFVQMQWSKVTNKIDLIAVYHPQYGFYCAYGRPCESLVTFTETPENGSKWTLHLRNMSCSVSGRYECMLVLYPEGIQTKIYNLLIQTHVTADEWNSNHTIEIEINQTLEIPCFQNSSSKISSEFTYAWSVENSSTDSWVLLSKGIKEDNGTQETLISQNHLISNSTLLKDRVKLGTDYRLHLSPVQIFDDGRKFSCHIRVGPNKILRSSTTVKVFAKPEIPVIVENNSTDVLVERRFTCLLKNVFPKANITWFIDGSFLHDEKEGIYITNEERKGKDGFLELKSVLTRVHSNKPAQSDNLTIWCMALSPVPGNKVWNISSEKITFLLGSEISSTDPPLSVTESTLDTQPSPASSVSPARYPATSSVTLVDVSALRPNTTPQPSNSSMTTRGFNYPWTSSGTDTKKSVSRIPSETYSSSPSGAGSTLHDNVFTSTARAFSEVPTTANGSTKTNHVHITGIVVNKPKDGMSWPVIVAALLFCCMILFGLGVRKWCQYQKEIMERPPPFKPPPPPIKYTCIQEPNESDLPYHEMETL
Briefly: flow cytometry, cells expressing target, 25 nM.

The target in assay [3] is T1, CD226 (human). Briefly: flow cytometry, CD226-expressing cells.
The target in assay [4] is T3, CD96. Briefly: flow cytometry, CD96-expressing cells.
Assay [5] concerns the target T3, CD96. The assay can be described thus: flow cytometry, cells.
Assay [6] deals with T1, CD226 (human). The assay can be described thus: flow cytometry, transfected cells.

Chain of CD112R (human) (Q6DKI7 whole entry): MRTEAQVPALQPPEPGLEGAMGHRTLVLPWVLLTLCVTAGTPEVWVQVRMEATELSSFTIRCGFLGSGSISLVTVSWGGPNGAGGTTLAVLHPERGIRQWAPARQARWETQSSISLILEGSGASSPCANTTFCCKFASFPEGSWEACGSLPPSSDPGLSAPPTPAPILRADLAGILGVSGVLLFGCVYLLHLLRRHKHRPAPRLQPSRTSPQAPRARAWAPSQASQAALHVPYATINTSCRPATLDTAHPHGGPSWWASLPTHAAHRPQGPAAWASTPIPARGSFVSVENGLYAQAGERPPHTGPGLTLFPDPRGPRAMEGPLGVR

B1: CD155 variant IgV-Fc P18T, D23G, Q60R, S67L, L79P, F91S, T107M, V115A (Fc fusion, not shown: a dimerising Fc or GST; small tags and cut ends)
chain: PGTGDVVVQAPTQVTGFLGGSVTLPCYLQVPNMEVTHVSQLTWARHGESGSMAVFHRTQGPSYLESKRLEFVAARPGAELRNASLRMSGLRVEDEGNYTCLFVMFPQGSRSADIWL
With B1, the MFI at 25 nM in the assay with CD112R (human) came to 874 MFI; with CD226 (human) [1], 30900 MFI; with TIGIT (human) it was 64100 MFI; with CD96 [2], 109000 MFI.

B2: CD155 variant IgV-Fc V11A, P18S, L79P, F91S, L104M, G111R (Fc fusion, not shown: a dimerising Fc or GST; small tags and cut ends)
chain: PGTGDVVAQAPTQVSGFLGDSVTLPCYLQVPNMEVTHVSQLTWARHGESGSMAVFHQTQGPSYSESKRLEFVAARPGAELRNASLRMSGLRVEDEGNYTCMFVTFPQRSRSVDIWL
As for B2, the MFI at 11.1 nM with CD226 (human) [3] came to 974 MFI; in the assay with CD96 [4] it was 923 MFI.

B3: CD155 P18T, F91S, F108L IgV-Fc (Fc fusion, not shown: a dimerising Fc or GST; small tags and cut ends)
chain: PGTGDVVVQAPTQVTGFLGDSVTLPCYLQVPNMEVTHVSQLTWARHGESGSMAVFHQTQGPSYSESKRLEFVAARLGAELRNASLRMSGLRVEDEGNYTCLFVTLPQGSRSVDIWL
As to B3, the MFI in the assay with CD96 [5] came out at 193000; with CD226 (human) [6], 395000.

B4: CD155 variant IgV-Fc P18T, M36T, S65A, S67E, L79Q, A81T, F91S, G111R (Fc fusion, not shown: a dimerising Fc or GST; small tags and cut ends)
chain: PGTGDVVVQAPTQVTGFLGDSVTLPCYLQVPNTEVTHVSQLTWARHGESGSMAVFHQTQGPAYEESKRLEFVAARQGTELRNASLRMSGLRVEDEGNYTCLFVTFPQRSRSVDIWL
For the molecule B4, the MFI at 11.1 nM with CD226 (human) [3] was 1130 MFI; with CD96 [4], 963 MFI.

B5: CD155 P18S, Y30C, F91S IgV-Fc (Fc fusion, not shown: a dimerising Fc or GST; small tags and cut ends)
chain: PGTGDVVVQAPTQVSGFLGDSVTLPCCLQVPNMEVTHVSQLTWARHGESGSMAVFHQTQGPSYSESKRLEFVAARLGAELRNASLRMSGLRVEDEGNYTCLFVTFPQGSRSVDIWL
Regarding B5, the results for the MFI with CD96 [5] and with CD226 (human) [6] were 56900 and 382000, respectively.

B6: CD155 P18T, F91S, V115A IgV-Fc (Fc fusion, not shown: a dimerising Fc or GST; small tags and cut ends)
chain: PGTGDVVVQAPTQVTGFLGDSVTLPCYLQVPNMEVTHVSQLTWARHGESGSMAVFHQTQGPSYSESKRLEFVAARLGAELRNASLRMSGLRVEDEGNYTCLFVTFPQGSRSADIWL
In the case of B6, the MFI in the assay with CD96 [5] was 22700; in the assay with CD226 (human) [6], 38500.

B7: CD155 L88P IgV-Fc (Fc fusion, not shown: a dimerising Fc or GST; small tags and cut ends)
chain: PGTGDVVVQAPTQVPGFLGDSVTLPCYLQVPNMEVTHVSQLTWARHGESGSMAVFHQTQGPSYSESKRLEFVAARLGAELRNASPRMFGLRVEDEGNYTCLFVTFPQGSRSVDIWL
On to B7, for which the results for the MFI with CD96 [5] and with CD226 (human) [6] were 35300 and 65100, respectively.

B8: CD155 variant IgV-Fc P18S, H59R, A76G, R78S, L79P (Fc fusion, not shown: a dimerising Fc or GST; large carriers; small tags and cut ends)
chain: PGTGDVVVQAPTQVSGFLGDSVTLPCYLQVPNMEVTHVSQLTWARHGESGSMAVFRQTQGPSYSESKRLEFVGASPGAELRNASLRMFGLRVEDEGNYTCLFVTFPQGSRSVDIWL
Turning to B8, the MFI at 25 nM with CD112R (human) is 1010 MFI; with CD226 (human) [1] it was 79400 MFI; with TIGIT (human) it was 131000 MFI; with CD96 [2], 44500 MFI.

B9: CD155 variant IgV-Fc P18L, K70E, L79P, F91S, V95A, G111R (Fc fusion, not shown: a dimerising Fc or GST; small tags and cut ends)
chain: WPPPGTGDVVVQAPTQVLGFLGDSVTLPCYLQVPNMEVTHVSQLTWARHGESGSMAVFHQTQGPSYSESERLEFVAARPGAELRNASLRMSGLRAEDEGNYTCLFVTFPQRSRSVDIWL
As for B9, in the assay with CD226 (human) [3], the Fold Change from CD155-ECD stood at 0.07 fold and the MFI at 11.1 nM came out at 1120 MFI. In the assay with CD96 [4], this molecule came in with a Fold Change from CD155-ECD of 0.06 fold and an MFI at 11.1 nM of 973 MFI.

B10: CD155 variant IgV-Fc V9I, V10I, P18S, F20S, T45A, L79P, F91S, L104M, F108Y, G111R, S112V (Fc fusion, not shown: a dimerising Fc or GST; small tags and cut ends)
chain: WPPPGTGDIIVQAPTQVSGSLGDSVTLPCYLQVPNMEVTHVSQLAWARHGESGSMAVFHQTQGPSYSESKRLEFVAARPGAELRNASLRMSGLRVEDEGNYTCMFVTYPQRVRSVDIWL
With B10, the Fold Change from CD155-ECD with CD226 (human) [3] and in the assay with CD96 [4] was 0.06 fold throughout. Also, the MFI at 11.1 nM was 973 MFI in the assay with CD226 (human) [3] and 974 MFI with CD96 [4].
